Reference: patent US20070093415A1
Blank lines part the entries; values can stand above or below the binder they belong to. No end group written: not given here. *: point of attachment. Biotin = O=C1N[C@H]2[C@H](CS[C@H]2CCCCC(=O)*)N1

Legend:
[1] = target: Aβ1-40 amyloid (amyloid form of the Aβ1-40 peptide); test: ELISA on immobilized Aβ1-40 amyloid, streptavidin-alkaline phosphatase detection
[2] = target: Aβ1-40 amyloid (amyloid form of the Aβ1-40 peptide); test: ELISA on immobilized Aβ1-40 amyloid, FIG. 5

- Kd [1]: 320 nM
B1: Biotin-… (peptide)
peptide: Biotin-AECDWGKGGRWRLWPGASGKTEACGP
modifications: also: flanking cysteines can form a disulfide bond

- concentration below which no significant binding was seen [2]: > 5 µM
B2: Biotin-… (peptide)
peptide: Biotin-DWGKGGRWRLWPGASGKTEA
